Data published in PMC3260246 (PLoS ONE, 2012).
Positions count from the first letter of the chain named. Numbers in names are those of the source.

B1: αA-crystallin R12A mutant (natural protein, human, UniProt P02489 1-173, looked up)
chain: MDVTIQHPWFKATLGPFYPSRLFDQFFGEGLFEYDLLPFLSSTISPYYRQSLFRTVLDSGISEVRSDRDKFVIFLDVKHFSPEDLTVKVQDDFVEIHGKHNERQDDHGYISREFHRRYRLPSNVDQSALSCSLSADGMLTFCGPKIQTGLDATHAERAIPVSREEKPTSAPSS
B2: wild-type human αB-crystallin (natural protein, UniProt P02511 1-175, looked up)
chain: MDIAIHHPWIRRPFFPFHSPSRLFDQFFGEHLLESDLFPTSTSLSPFYLRPPSFLRAPSWFDTGLSEMRLEKDRFSVNLDVKHFSPEELKVKVLGDVIEVHGKHEERQDEHGFISREFHRKYRIPADVDPLTITSSLSSDGVLTVNGPRKQVSGPERTIPITREEKPAVTAAPKK
notes: αB-crystallin, human; The reverse primer carries no stop codon; Large oligomer (molar mass about 4.8e5 g/mol by light scattering); also called αBWt; Wt αB-crystallin; source: E. coli BL21(DE3), purified (gel filtration, ion-exchange chromatography)
B3: αB-crystallin R12A mutant (natural protein, human, UniProt P02511 1-175, looked up)
chain: B2 chain with R12A
notes: αB-crystallin, human, R12A made by site-directed mutagenesis on the Wt cDNA in pET23a; Same construct as m3 with R12A; also called αB_(R12A); source: E. coli BL21(DE3), purified (gel filtration, ion-exchange chromatography)

Target: the molecule itself
Assay: multi-angle light scattering; molar mass and hydrodynamic radius of wild-type and R12A proteins, ASTRA 5.3.4; conditions as in refs 32, 58

Row | Protein | binding result
1 | B1 | binds
2 | B2 | binds
3 | B3 | binds
